What was measured:
Format in all cases: cell-based, human
[1] = test system: AKT and S6 phosphorylation in DU145 cells; assay: RNASE4-induced phosphorylation of AKT and S6 (immunoblot); conditions: serum-starved DU145, RNASE4 1 μg/ml, time course
Protocol: (§1) FIGS. 10A-E. RNASE4 induces prostate cancer cell proliferation and phosphorylation of AKT and S6. (A and B) Exogenous RNASE4 (1 μg/ml) stimulates cell proliferation (A) and cell cycle progression (B) of DU145 cells cultured in the presence of 2% FBS. Cell numbers were determined by MTT assay. Cell cycle status was determined by flow cytometry after 24 hour incubation with RNASE4. (C) Time course of AKT and S6 phosphorylation of serum-starved DU145 cells by RNASE4 (1 μg/ml). Left panels, immunoblots; right panels, quantification of p-AKT and p-S6 normalized to total AKT and S6 by Image J analysis. […] Cells were pre-incubated with the inhibitors at the indicated concentrations for 1 hour prior to be stimulated by 1 μg/ml of RNASE4 for 5 minutes. Top panels, immunoblots; bottom panels, Image J quantification of p-AKT and p-S6 normalized to total AKT and S6. (E) Effect of AKT inhibitor MK-2206, PI3K inhibitors Wortmannin and LY294002, and mTOR inhibitor Rapamycin on RNASE4-induced cell proliferation. DU145 cells were serum-starved overnight, incubated with the inhibitors for 1 hour, and then treated with RNASE4 (1 μg/ml) for three days. Cell numbers were determined by MTT assay. Data shown are from a representative experiments in triplicates of 3 independent repeats. Error bars indicate SEM. **P≤0.01, by unpaired two-tailed Student's t test.
FIGS. 12A-F. RNASE4 induces AXL phosphorylation. (A) Human phospho-receptor tyrosine kinase (RTK) antibody array analysis. Serum-starved DU145 cells were treated with or without 1 μg/ml of RNASE4 for 5 minutes. A total of 1.5 mg cell lysate protein was blotted on each array membrane. […] (B) Immunoblot analysis of RNASE4-stimulated AXL phosphorylation. DU145 cells were serum-starved overnight and treated with 1 μg/ml of RNASE4 for the indicated time. Cell lysates were analyzed by antibodies against total AXL and phospho-AXL, with β-actin as the loading control. Left panels, immunoblots; right panel, Image J quantification of p-AXL normalized to total AXL. (C) Immunoblot analysis of phospho-AXL in response to stimulation by ANG, RNase A, and RNASE4. DU145 cells were serum-starved overnight and treated with 1 μg/ml of ANG, RNase A, or RNASE4 for 15 minutes. Left panels, immunoblots; right panel, quantification. (D) Effect of AXL inhibitor R428 on RNASE4-induced cell proliferation. Serum-starved DU145 cells were incubated with 1 or 3 μM R428 for 3 hours and then stimulated by 1 μg/ml of RNASE4 for 3 days. Cell numbers were determined by MTT assay. Data shown are means±SEM of a representative experiment (in triplicates) of 3 independent repeats. **P≤0.01 and ***P≤0.001, by unpaired two-tailed Student's t test. (E) Effect of AXL inhibitor R428 on RNASE4-induced AKT and P6 phosphorylation. Serum-starved DU145 cells were incubated with 1 or 3 μM R428 for 3 hours and then stimulated by 1 μg/ml of RNASE4 for 5 minutes. Cell lysates were analyzed for AKT and P6 phosphorylation by immunoblotting. Top panels, immunoblots; bottom panels, quantification of phospho-AKT and phospho-S6 by Image J analyses normalized to total AKT and P6, respectively. (F) Schematic presentation of proposed involvement of AXL in RNASE4-stimulated cellular events.

DU145 cells [2] = assay: RNASE4-induced cell proliferation (MTT assay); conditions: exogenous RNASE4 1 μg/ml, DU145, 2% FBS
Protocol: as §1
FIGS. 12A-F. RNASE4 induces AXL phosphorylation. (A) Human phospho-receptor tyrosine kinase (RTK) antibody array analysis. Serum-starved DU145 cells were treated with or without 1 μg/ml of RNASE4 for 5 minutes. […] Cell lysates were analyzed by antibodies against total AXL and phospho-AXL, with β-actin as the loading control. Left panels, immunoblots; right panel, Image J quantification of p-AXL normalized to total AXL. […] Left panels, immunoblots; right panel, quantification. […] Cell numbers were determined by MTT assay. […] Cell lysates were analyzed for AKT and P6 phosphorylation by immunoblotting. Top panels, immunoblots; bottom panels, quantification of phospho-AKT and phospho-S6 by Image J analyses normalized to total AKT and P6, respectively. […]

LNCaP cells [3] = assay: RNASE4 knockdown, cell proliferation (Coulter counter); conditions: exogenous RNASE4 1 μg/ml
Text: (§2) FIGS. 15A-D. RNASE4 knockdown inhibits LNCaP cell proliferation in vitro and colony formation in soft agar. (A) Immunoblot analysis of RNASE4 in LNCaP cells stably transfected with shControl, shRNASE4-1, and shRNASE4-2. (B) qRT-PCR analysis of RNASE4 mRNA normalized to GAPDH in LNCaP cells stably transfected with shControl, shRNASE4-1, and shRNASE4-2. (C) Effect of RNASE4 knockdown on LNCaP cell proliferation. Cell numbers were counted by Coulter counter. Exogenous RNASE4, when presented, was at the concentration of 1 μg/ml. Data shown are from a representative experiment in triplicates of 3 independent experiments. (D) Effects of RNASE4 knockdown on colonies formation and growth of LNCaP cells in soft agar. The same numbers of control and RNASE4 knockdown cells were seeded in soft agar, and grown in the absence or presence of 1 μg/ml of RNASE4 for 14 days. Colonies were counted and size measured on a Nikon Eclipse ti microscope. Top panels, representative images of colonies; scale bars=100 μm. Bottom panels, quantification of LMCaP cell colonies and sizes in soft agar. Data shown are means±SEM of five randomly selected fields per dish from a representative experiment. **P≤0.01 and ***P≤0.001, by two-tailed Student's t test.
(§3) Lentiviral mediated shRNA system (pGIPZ, Open Biosystems) was used to generate control and RNASE4 knockdown cell lines. […]

DU145 cells [4] = assay: RNASE4 knockdown, colony formation in soft agar; conditions: DU145, exogenous RNASE4 1 μg/ml, 14 days
Text: as §2, with “14A-D.” for “15A-D.”, “DU145” for “LNCaP”, “on” for “on LNCaP”, “DU145” for “LMCaP”
as §3

LNCaP cells [5] = assay: RNASE4 knockdown, colony formation in soft agar; conditions: exogenous RNASE4 1 μg/ml, 14 days
Text: as §2, §3

B1: RNASE4: recombinant human RNASE4 protein from pET11 expression in E. coli, purified by reversed-phase HPLC; added exogenously (protein, UniProt P34096 29-147, looked up)
Ribonuclease 4: QDGMYQRFLRQHVHPEETGGSDRYCNLMMQRRKMTLYHCKRFNTFIHEDIWNIRSICSTTNIQCKNGKMNCHEGVVKVTDCRDTGSSRAPNCRYRAIASTRRVVIACEGNPQVPVHFDG
activation (phosphorylation) of AKT and S6 [1]: rapidly and continuously activated
cell proliferation (DU145 cells [2]): stimulates
rescue of the effect of RNASE4 knockdown on cell proliferation (LNCaP cells [3]): able to rescue
rescue of the effect of RNASE4 knockdown on colony formation (DU145 cells [4]): able to rescue
rescue of the effect of RNASE4 knockdown on colony formation (LNCaP cells [5]): able to rescue

From patent US11739161B2, “Methods for treating and diagnosing prostate cancer” (Tufts Medical Center, Inc., priority 2017, dated 2023)
